Data as given in US20170210813A1 (Regeneron, published 2017).

How the values were obtained:
[1] = target: human PDGF-BB (human, UniProt P01127 82-190); test: SPR (Biacore 3000), 30 nM ligand over hPDGFRb.mFc captured by anti-mouse Fc, no antibody
Excerpt: Real-time binding response was monitored throughout the course of the assay and was compared to the binding response measured when PDGF ligand was applied over the derivatized captured control surface in the absence of captured antibody.

[2] = target: T1, hPDGFRb.mmh (human, UniProt P09619 33-531); test: SPR, mAb captured, 25 C
T1 construct: Soluble monomeric construct; also called soluble human PDGFR-beta.mmh
Method: (§1) Antibodies, expressed as either mouse Fc (prefix H1M; H2M) or human Fc (prefix H4H), were captured on their respective anti-Fc sensor surfaces (Mab capture format). […] Kinetic association (kₐ) and dissociation (kd) rate constants were determined by processing and fitting the data to a 1:1 binding model using Scrubber 2.0 curve fitting software.

[3] = target: T2, human PDGFRb.hFc (human); test: SPR, mAb captured, 25 C
T2 construct: Soluble dimeric construct with human Fc; also called hPDGFRb.hFc
Method: as §1

[4] = target: T3, Macaca fascicularis PDGFRb.mmh (Macaca fascicularis); test: SPR, mAb captured, 25 C
T3 construct: Soluble monomeric construct; also called mfPDGFRb.mmh
T3 chain: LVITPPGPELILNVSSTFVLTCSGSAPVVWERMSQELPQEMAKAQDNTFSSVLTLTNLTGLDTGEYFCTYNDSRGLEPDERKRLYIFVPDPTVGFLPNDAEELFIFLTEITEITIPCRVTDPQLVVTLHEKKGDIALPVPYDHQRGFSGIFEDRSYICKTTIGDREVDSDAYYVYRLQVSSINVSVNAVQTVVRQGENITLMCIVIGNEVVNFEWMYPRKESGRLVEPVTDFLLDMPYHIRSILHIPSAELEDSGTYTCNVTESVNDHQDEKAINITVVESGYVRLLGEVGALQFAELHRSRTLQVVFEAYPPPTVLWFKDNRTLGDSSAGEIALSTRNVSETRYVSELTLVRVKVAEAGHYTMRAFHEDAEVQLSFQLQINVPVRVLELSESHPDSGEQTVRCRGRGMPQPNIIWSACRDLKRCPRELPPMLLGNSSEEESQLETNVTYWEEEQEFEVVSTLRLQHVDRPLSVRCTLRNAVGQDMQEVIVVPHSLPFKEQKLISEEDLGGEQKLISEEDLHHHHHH
Method: as §1

[5] = target: T1, hPDGFRb.mmh; test: blocking ELISA, biot-hPDGFRb.mmh to coated PDGF-BB
[6] = target: T4, full length human PDGFR-beta on HEK293 cells (human, UniProt P09619 33-1106); test: cell-based or functional assay
T4 sequence (P09619 33-1106 limits assumed): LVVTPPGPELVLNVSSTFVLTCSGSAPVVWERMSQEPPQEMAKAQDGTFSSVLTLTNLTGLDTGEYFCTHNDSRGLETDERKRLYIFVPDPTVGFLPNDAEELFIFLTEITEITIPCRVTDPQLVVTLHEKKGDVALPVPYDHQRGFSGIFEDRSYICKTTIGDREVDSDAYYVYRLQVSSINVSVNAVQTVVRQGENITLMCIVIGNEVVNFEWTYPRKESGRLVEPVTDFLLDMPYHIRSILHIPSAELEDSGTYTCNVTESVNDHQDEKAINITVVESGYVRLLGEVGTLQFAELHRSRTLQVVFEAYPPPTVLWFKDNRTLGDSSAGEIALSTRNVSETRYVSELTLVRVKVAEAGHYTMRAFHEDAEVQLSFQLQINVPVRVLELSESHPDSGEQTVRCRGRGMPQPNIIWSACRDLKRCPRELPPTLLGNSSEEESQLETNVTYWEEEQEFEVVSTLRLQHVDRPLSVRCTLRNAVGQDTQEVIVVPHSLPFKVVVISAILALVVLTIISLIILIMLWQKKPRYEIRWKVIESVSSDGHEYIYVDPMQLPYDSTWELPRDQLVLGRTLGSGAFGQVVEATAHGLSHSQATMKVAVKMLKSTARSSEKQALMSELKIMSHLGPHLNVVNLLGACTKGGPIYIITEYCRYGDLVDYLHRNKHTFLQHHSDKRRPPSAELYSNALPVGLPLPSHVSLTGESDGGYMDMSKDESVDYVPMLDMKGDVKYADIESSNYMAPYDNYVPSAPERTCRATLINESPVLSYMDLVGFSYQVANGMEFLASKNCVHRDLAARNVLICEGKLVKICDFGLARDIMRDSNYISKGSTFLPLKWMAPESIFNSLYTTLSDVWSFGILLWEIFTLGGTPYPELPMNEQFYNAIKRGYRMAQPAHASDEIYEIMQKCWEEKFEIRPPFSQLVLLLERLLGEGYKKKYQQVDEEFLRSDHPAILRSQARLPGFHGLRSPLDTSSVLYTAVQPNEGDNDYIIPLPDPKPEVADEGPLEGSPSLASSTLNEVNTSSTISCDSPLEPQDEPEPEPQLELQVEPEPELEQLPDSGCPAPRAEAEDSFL

[7] = target: T1, hPDGFRb.mmh; test: Octet BLI cross-competition, 25 C; hPDGFRb.mmh on anti-Penta-His tips pre-saturated with mAb-1 H4H3374N (row 3)
Method: (§2) A cross-competition assay was conducted to assess the ability of select antibodies to compete with one another for binding to human PDGFR-beta. […] Each PDGFR-beta.mmh-coated sensor tip was saturated for 5 min with a first anti-PDGFR-beta antibody (Mab #1; 50 μg/mL). Next, each sensor tip was saturated with a solution of a second anti-PDGFR-beta antibody (Mab #2). The real time response of Mab #2 binding to PDGR-beta.mmh pre-complexed with Mab #1 was then monitored. All assays were performed at 25° C. with a flow rate of 1000 rpm on an Octet RED384 biosensor in Octet HBST buffer according to manufacturer's instructions (ForteBio Corp., Menlo Park, Calif.). Results are illustrated in FIG. 2.

[8] = target: T1, hPDGFRb.mmh; test: Octet BLI cross-competition, 25 C; hPDGFRb.mmh on anti-Penta-His tips pre-saturated with mAb-1 H4H3103S (row 4)
Method: as §2

[9] = target: T1, hPDGFRb.mmh; test: Octet BLI cross-competition, 25 C; hPDGFRb.mmh on anti-Penta-His tips pre-saturated with mAb-1 H4H3365N (row 2)
Method: as §2

[10] = target: T4, full length human PDGFR-beta on HEK293 …; test: cell-based or functional assay; remark: listed apart in the source
[11] = target: T1, hPDGFRb.mmh; test: Octet BLI cross-competition, 25 C; hPDGFRb.mmh on anti-Penta-His tips pre-saturated with mAb-1 H4H3099S (row 6)
Method: as §2

[12] = target: T1, hPDGFRb.mmh; test: SPR, mAb captured, 37 C
Method: as §1

[13] = target: T2, human PDGFRb.hFc; test: SPR, mAb captured, 37 C
Method: as §1

[14] = target: T3, Macaca fascicularis PDGFRb.mmh; test: SPR, mAb captured, 37 C
Method: as §1

[15] = target: T1, hPDGFRb.mmh; test: Octet BLI cross-competition, 25 C; hPDGFRb.mmh on anti-Penta-His tips pre-saturated with mAb-1 H4H3310N (row 9)
Method: as §2

[16] = target: T1, hPDGFRb.mmh; test: Octet BLI cross-competition, 25 C; hPDGFRb.mmh on anti-Penta-His tips pre-saturated with mAb-1 H4H3305N (row 8)
Method: as §2

[17] = target: T1, hPDGFRb.mmh; test: Octet BLI cross-competition, 25 C; hPDGFRb.mmh on anti-Penta-His tips pre-saturated with mAb-1 H4H3094P (row 5)
Method: as §2

[18] = target: T1, hPDGFRb.mmh; test: Octet BLI cross-competition, 25 C; hPDGFRb.mmh on anti-Penta-His tips pre-saturated with mAb-1 Control I (row 1)
Method: as §2

human PDGF-BB, sequence (P01127 82-190 limits assumed): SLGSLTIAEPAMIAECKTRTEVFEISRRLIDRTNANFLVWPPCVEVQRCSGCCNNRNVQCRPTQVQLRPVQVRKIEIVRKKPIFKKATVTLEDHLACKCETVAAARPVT

B1: human PDGFRb.mFc (Fc fusion)
chain: LVVTPPGPELVLNVSSTFVLTCSGSAPVVWERMSQEPPQEMAKAQDGTFSSVLTLTNLTGLDTGEYFCTHNDSRGLETDERKRLYIFVPDPTVGFLPNDAEELFIFLTEITEITIPCRVTDPQLVVTLHEKKGDVALPVPYDHQRGFFGIFEDRSYICKTTIGDREVDSDAYYVYRLQVSSINVSVNAVQTVVRQGENITLMCIVIGNEVVNFEWTYPRKESGRLVEPVTDFLLDMPYHIRSILHIPSAELEDSGTYTCNVTESVNDHQDEKAINITVVESGYVRLLGEVGTLQFAELHRSRTLQVVFEAYPPPTVLWFKDNRTLGDSSAGEIALSTRNVSETRYVSELTLVRVKVAEAGHYTMRAFHEDAEVQLSFQLQINVPVRVLELSESHPDSGEQTVRCRGRGMPQPNIIWSACRDLKRCPRELPPTLLGNSSEEESQLETNVTYWEEEQEFEVVSTLRLQHVDRPLSVRCTLRNAVGQDTQEVIVVPHSLPFKEPRGPTIKPCPPCKCPAPNLLGGPSVFIFPPKIKDVLMISLSPIVTCVVVDVSEDDPDVQISWFVNNVEVHTAQTQTHREDYNSTLRVVSALPIQHQDWMSGKEFKCKVNNKDLPAPIERTISKPKGSVRAPQVYVLPPPEEEMTKKQVTLTCMVTDFMPEDIYVEWTNNGKTELNYKNTEPVLDSDGSYFMYSKLRVEKKNWVERNSYSCSVVHEGLHNHHTTKSFSRTPGK
notes: Soluble dimeric construct with mouse Fc; also called hPDGFRb.mFc; soluble human PDGFR-beta.mFc
B1: binds [1].

B2: H4H3107S (antibody, human IgG4, V domains shown)
VH: QVQLVESGGGFVQPGGSLRLSCAASGFTFTNYAMSWVRQAPGKGLEWVSAISGVGGSTYYADSVKGRFTISRDTSKNMLYLQMNSLRAEDTAVYYCAKAPHWGPFGSWGQGTLVTVSS
VL: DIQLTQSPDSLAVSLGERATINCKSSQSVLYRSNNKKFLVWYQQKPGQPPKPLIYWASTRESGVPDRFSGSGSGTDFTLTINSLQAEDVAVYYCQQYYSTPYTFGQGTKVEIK
notes: human IgG4 Fc (H4H prefix)
With B2 the Kd [2] was 0.863 nM, the koff [2] was 0.000191 s⁻¹ and the kon [2] was 221000 M⁻¹ s⁻¹. For the same binder, the t1/2 [2] was 61 min, the Kd [3] was 0.0801 nM and the koff [3] was 4.24e-05 s⁻¹. The kon [3] was 529000 M⁻¹ s⁻¹, the t1/2 [3] was 272 min and the Kd [4] was 0.836 nM. It also gave a koff [4] of 0.000198 s⁻¹, a kon [4] of 236000 M⁻¹ s⁻¹ and a t1/2 [4] of 58 min. For the same binder, the “% Maximum Blocking” value [5] was 83%, the IC50 [5] was 0.066 nM and the “IC50, blocking PDGF-BB (250 pM) activation, SRE-luciferase” value [6] was 1.7e-10 M. For the same binder, the “IC50, blocking PDGF-DD (400 pM) activation, SRE-luciferase” value [6] was 2.4e-10 M, the “Response of mAb-2 Binding to hPDGFRβ.mmh Pre-Complexed with mAb-1 (nm)” value (“Response of mAb-2 Binding” for short) [7] was 0.31 nm and the “Response of mAb-2 Binding” value [8] was 0.33 nm. The “Response of mAb-2 Binding” value [9] was 0.32 nm, the “Percent Internalization (Relative to Control I)” value [10] was 92% and the “Response of mAb-2 Binding” value [11] was 0.01 nm. For the same binder, the Kd [12] was 1.45 nM, the koff [12] was 0.000879 s⁻¹ and the kon [12] was 605000 M⁻¹ s⁻¹. For the same binder, the t1/2 [12] was 13 min, the Kd [13] was 0.165 nM and the koff [13] was 0.000115 s⁻¹. It also gave a kon [13] of 695000 M⁻¹ s⁻¹, a t1/2 [13] of 101 min and a Kd [14] of 1.38 nM. It also gave a koff [14] of 0.000942 s⁻¹, a kon [14] of 683000 M⁻¹ s⁻¹ and a t1/2 [14] of 12 min. For the same binder, the “Response of mAb-2 Binding” value [15] was 0.02 nm, the “Response of mAb-2 Binding” value [16] was 0.02 nm and the “Response of mAb-2 Binding” value [17] was 0.36 nm. For the same binder, the “Response of mAb-2 Binding” value [18] was 0.28 nm.
